Results from patent US20050118638A1.

Columns and labels:
[1] = target: TSH receptor (detergent solubilised TSH receptor preparation) (UniProt P16473); assay: solubilised TSHR, PEG method; IgG 100 µg/ml; competitor 125I-16E5 Fab
[2] = target: TSH receptor (detergent solubilised TSH receptor preparation) (UniProt P16473); assay: 125I-TSH, TSHR coated tubes; 20 µg/ml
[3] = target: TSH receptor (detergent solubilised TSH receptor preparation) (UniProt P16473); assay: 125I-TSH, TSHR coated tubes; 200 µg/ml

Sequence of TSH receptor (detergent solubilised TSH receptor preparation) (P16473 21-764 limits assumed): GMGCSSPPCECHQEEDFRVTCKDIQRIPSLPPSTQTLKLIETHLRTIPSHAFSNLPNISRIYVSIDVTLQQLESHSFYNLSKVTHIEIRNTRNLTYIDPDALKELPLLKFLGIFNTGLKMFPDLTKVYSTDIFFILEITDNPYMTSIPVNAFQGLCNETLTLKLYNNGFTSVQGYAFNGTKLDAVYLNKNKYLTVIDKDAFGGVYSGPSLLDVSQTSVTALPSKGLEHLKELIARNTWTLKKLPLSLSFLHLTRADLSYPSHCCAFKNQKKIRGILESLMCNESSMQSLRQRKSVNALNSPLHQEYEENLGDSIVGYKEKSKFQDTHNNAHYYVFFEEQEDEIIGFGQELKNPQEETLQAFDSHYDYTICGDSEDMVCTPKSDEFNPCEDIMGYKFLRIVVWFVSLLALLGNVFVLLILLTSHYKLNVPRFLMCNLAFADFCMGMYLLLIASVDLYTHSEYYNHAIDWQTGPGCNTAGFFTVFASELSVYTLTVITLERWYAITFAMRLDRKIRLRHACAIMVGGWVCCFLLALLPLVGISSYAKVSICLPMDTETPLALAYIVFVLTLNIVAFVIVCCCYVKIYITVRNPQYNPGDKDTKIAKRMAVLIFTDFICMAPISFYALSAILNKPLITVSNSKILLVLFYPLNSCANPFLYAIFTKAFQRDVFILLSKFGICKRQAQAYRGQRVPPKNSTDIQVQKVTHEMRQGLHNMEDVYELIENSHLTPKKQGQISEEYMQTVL

% inhibition of 125I-16E5 Fab binding [1]: 8.8%
% inhibition of TSH binding [2]: 6.1%
% inhibition of TSH binding [3]: 30.7%
B1: 3B3 IgG (antibody, V domains shown)
VH: DVQLQQPGAELVKPGASVKLSCTTSGVNIKDTYMHWMKQRPEQGLEWIGRIDPANGNTKYDPKFRGKATITADTSSNTVYVQLRSLTSEDTAVYYCAYDGYWGQGTLVTVSA
VL: NIVMTQTPASLAVSLGQRATISCRASESVDSYGNNFMHWYQQKPGQSPRLLIYRASNLESGIPARFSGSGSRTDFTLTTNPVEADDVATYYCQQSHKDPLTFGAGTKLELK
